Reference: PMC2865183 (Nature chemical biology, 2009)

Target: the molecule itself
Assay: SEC

B1: VVD-36 M135I:M165I (domain or fragment, UniProt Q9C3Y6 37-186, looked up)
chain: HTLYAPGGYDIMGYLIQIMNRPNPQVELGPVDTSCALILCDLKQKDTPIVYASEAFLYMTGYSNAEVLGRNCRFLQSPDGMVKPKSTRKYVDSNTINTIRKAIDRNAEVQVEVVNFKKNGQRFVNFLTIIPVRDETGEYRYSMGFQCETE
  fold increase in dimer affinity (against VVD-36): > 5 fold
